Measurements taken from patent publication US20170022281A1 (AbbVie / Abbott, published 2017).

Tests used:
[1] = biological target: T1, rat PRLR ECD-Fc fusion protein (rat, UniProt P05710 20-229); test: ELISA on ECD
T1 construct: extracellular domain; not shown: Fc region (captured by goat anti-human Fc)
T1 sequence (looked up): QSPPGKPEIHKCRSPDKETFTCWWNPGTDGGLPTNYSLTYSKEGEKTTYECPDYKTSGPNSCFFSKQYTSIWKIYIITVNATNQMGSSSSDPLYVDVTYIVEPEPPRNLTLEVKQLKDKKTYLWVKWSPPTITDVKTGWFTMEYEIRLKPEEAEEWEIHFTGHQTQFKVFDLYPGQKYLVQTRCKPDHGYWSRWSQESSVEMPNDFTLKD
Outline: (§1)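 PRLR was captured on blocked plates for 1 h, then incubated 1 h with serial antibody dilutions in PBS pH 7.4/0.05% Tween 20 containing 10% Superblock. HRP secondary and TMB gave signal read at 450 nm, and EC50 came from curve fitting.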

human PRLR on cells = biological target: T2, human PRLR on cells (human, UniProt P16471 25-622); test: cell-based or functional assay
T2 sequence: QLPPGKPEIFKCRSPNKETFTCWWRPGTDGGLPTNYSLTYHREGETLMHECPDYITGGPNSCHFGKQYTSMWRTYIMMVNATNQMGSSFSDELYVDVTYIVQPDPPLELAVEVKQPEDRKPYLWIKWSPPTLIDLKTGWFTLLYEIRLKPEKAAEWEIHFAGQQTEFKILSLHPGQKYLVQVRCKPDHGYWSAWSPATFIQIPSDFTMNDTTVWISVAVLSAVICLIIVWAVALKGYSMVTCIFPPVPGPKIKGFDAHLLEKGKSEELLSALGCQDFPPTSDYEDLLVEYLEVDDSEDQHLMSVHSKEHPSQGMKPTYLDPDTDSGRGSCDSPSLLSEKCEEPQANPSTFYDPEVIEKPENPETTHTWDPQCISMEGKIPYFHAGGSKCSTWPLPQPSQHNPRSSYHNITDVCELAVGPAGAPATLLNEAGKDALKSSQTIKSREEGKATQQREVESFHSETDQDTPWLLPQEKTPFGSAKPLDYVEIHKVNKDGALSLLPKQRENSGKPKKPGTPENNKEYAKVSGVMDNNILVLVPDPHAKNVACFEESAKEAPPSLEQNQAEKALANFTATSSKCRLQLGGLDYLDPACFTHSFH

[2] = biological target: cyno PRLR on Baf3-cyPRLR cells (cyno); test: cell-based or functional assay
[3] = biological target: T3, mouse PRLR on Baf3-mPRLR cells (mouse, UniProt Q08501 20-608); test: cell-based or functional assay
T3 sequence (looked up): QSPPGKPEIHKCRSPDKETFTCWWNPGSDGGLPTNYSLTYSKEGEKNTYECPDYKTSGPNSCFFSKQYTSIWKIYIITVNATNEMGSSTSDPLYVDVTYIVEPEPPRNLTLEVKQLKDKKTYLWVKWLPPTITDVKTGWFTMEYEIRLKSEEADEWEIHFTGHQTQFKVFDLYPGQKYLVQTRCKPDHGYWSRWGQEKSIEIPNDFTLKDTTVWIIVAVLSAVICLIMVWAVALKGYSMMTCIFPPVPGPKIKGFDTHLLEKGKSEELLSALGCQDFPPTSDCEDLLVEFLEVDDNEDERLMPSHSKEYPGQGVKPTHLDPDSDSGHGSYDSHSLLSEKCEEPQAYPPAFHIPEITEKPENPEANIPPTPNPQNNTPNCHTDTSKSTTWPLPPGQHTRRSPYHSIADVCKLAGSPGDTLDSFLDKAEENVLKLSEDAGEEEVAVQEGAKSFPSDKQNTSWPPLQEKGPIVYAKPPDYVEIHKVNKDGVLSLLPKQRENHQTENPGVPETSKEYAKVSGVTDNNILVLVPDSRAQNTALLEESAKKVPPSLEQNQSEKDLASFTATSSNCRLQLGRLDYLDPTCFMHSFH

[4] = biological target: T4, human PRLR (Biacore antigen) (human, UniProt P16471 25-234, limits assumed); test: SPR simultaneous binding; PRLR held by surface mAb Ab39
T4 construct: The construct injected over captured antibody is not described (a soluble form is likely); also called huPRLR
T4 sequence: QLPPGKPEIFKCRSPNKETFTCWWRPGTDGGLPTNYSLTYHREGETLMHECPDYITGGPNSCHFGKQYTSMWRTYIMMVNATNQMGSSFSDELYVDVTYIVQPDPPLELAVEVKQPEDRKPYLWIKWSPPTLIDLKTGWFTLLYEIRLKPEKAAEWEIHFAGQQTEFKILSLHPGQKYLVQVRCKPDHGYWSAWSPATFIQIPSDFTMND
Protocol: (§2) Running buffer was HBS-EP+ (10 mM Hepes, pH7.4, 150 mM NaCl, 3 mM EDTA, 0.05% surfactant). Assay was performed at 12° C. using Biacore T200 and CM5 sensor chips with anti-human IgG (Pierce) amine-coupled in all 4 flow cells to ˜2000 RU.
(§3) Separate test mAbs were captured in flowcells 2, 3 & 4 (flowcell 1 was reference, no test mAb). All 4 flowcells were then blocked by injection with isotype control mAb at 50 ug/ml. All 4 flowcells were then injected with antigen or buffer only (buffer only is for double referencing, done for each mAb pair individually). All 4 flowcells were then injected with 2nd test mAb at 10 ug/ml. All 4 flowcells were then regenerated with glycine, pH1.5.

[5] = biological target: T4, human PRLR (Biacore antigen); test: SPR simultaneous binding; PRLR held by surface mAb Ab48
Protocol: as §2, §3

[6] = biological target: T4, human PRLR (Biacore antigen); test: SPR simultaneous binding; PRLR held by surface mAb Ab30
Protocol: as §2, §3

[7] = biological target: T5, mouse PRLR ECD-Fc fusion protein (mouse, UniProt Q08501 20-229); test: ELISA on ECD
T5 construct: extracellular domain; not shown: Fc region (captured by goat anti-human Fc)
T5 sequence (looked up): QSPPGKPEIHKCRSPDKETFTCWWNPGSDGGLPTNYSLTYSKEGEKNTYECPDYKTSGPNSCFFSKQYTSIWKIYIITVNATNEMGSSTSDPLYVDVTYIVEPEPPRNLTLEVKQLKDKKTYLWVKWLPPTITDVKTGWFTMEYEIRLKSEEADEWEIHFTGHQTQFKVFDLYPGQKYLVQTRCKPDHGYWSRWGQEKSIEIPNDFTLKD
Outline: as §1

Row | Binder | EC50 [1] | Baf3-hPRLR proliferation IC50 (human PRLR on cells) | T47D pPRLR ELISA IC50 (human PRLR on cells) | Baf3-cyPRLR proliferation IC50 [2] | Baf3-mPRLR proliferation IC50 [3] | solution mAb binding, % of PRLR binding [4] | solution mAb binding, % of PRLR binding [5] | solution mAb binding, % of PRLR binding [6] | EC50 [7]
1 | LFA102 (antibody, human IgG1, kappa, V domains shown, humanized IgG1 kappa comparator (WO 2008022295)) VH: EVQLVESGGGLVQPGGSLRLSCAVSGFTFSSYGMSWVRQAPGKRLEWVATVSSGGTYTYYPDSVKGRFTISRDNSKNTLYLQMNSLRAEDTAMYYCARHRGNYYATYYYAMDYWGQGTLVTVSS VL: DIVLTQSPDSLAVSLGERATINCKASKSVSTSGYTYMHWYQQKPGQPPKLLIYLASNRESGVPDRFSGSGSGTDFTLTISPVQAEDVATYYCQHSGELPPSFGQGTKLEIKR | 0.157 nM | 0.56 mg/L | 0.069 µg/mL | > 30 mg/L | > 30 mg/L | 36% | -1% | 35% | 
2 | Ab49 (antibody, human IgG1, kappa, V domains shown, humanized from Ab8; G1; also called Ab3 HC.1a and Ab3 LC.1b) VH: EVQLVQSGAEVKKPGASVKVSCKASGYTFTDYNIHWVRQAPGQGLEWIGYIYPNNDGTGYNQKFKSRATLTVDNSTSTAYMELRSLRSDDTAVYYCARGDGNYVGDMDYWGQGTTVTVSS VL: DIQMTQSPSSLSASVGDRVTITCRASENIYSYLAWYQQKPGKAPKLLVYNAKTLAEGVPSRFSGSGSGTDFTLTISSLQPEDFATYYCQHHYATPFTFGQGTKLEIKR |  | 0.37 mg/L |  | 3.49 mg/L | > 30 mg/L | -2% | 0% | -1% | 
3 | Ab48 (antibody, human IgG1, kappa, V domains shown, humanized from Ab8; G1; also called Ab3 HC.1a and Ab3 LC.1a) VH: EVQLVQSGAEVKKPGASVKVSCKASGYTFTDYNIHWVRQAPGQGLEWIGYIYPNNDGTGYNQKFKSRATLTVDNSTSTAYMELRSLRSDDTAVYYCARGDGNYVGDMDYWGQGTTVTVSS VL: DIQMTQSPSSLSASVGDRVTITCRASENIYSYLAWYQQKPGKPPKLLVYNAKTLAEGVPSRFSGSGSGTDFTLTISSLQPEDFATYYCQHHYATPFTFGQGTKLEIKR |  | 0.4 mg/L |  | 4.87 mg/L | > 30 mg/L | -2% | -1% | -1% | 
4 | Ab19 (antibody, human IgG1, kappa, V domains shown, humanized from Ab6; G1; also called Ab1 HC.1a and Ab1 LC.1a) VH: EVQLVQSGAEVKKPGSSVKVSCKASGYTFTTYWMHWVRQAPGQGLEWIGEIDPSDSYSNYNQKFKDRATLTVDKSTSTAYMELSSLRSEDTAVYYCARNGGLGPAWFSYWGQGTLVTVSS VL: DIQMTQSPSSVSASVGDRVTITCKASQYVGTAVAWYQQKPGKSPKLLIYSASNRYTGVPSRFSDSGSGTDFTLTISSLQPEDFATYFCQQYSSYPWTFGGGTKVEIKR |  | 0.12 mg/L |  | 0.13 mg/L | > 30 mg/L | -2% | 0% | -1% | 
5 | Ab21 (antibody, human IgG1, kappa, V domains shown, humanized from Ab6; G1; also called Ab1 HC.1a and Ab1 LC.2a) VH: EVQLVQSGAEVKKPGSSVKVSCKASGYTFTTYWMHWVRQAPGQGLEWIGEIDPSDSYSNYNQKFKDRATLTVDKSTSTAYMELSSLRSEDTAVYYCARNGGLGPAWFSYWGQGTLVTVSS VL: EIVMTQSPATLSVSPGERATLSCKASQYVGTAVAWYQQKPGQSPRLLIYSASNRYTGVPARFSDSGSGTEFTLTISSLQSEDFAVYFCQQYSSYPWTFGGGTKVEIKR |  | 0.15 mg/L |  | 0.15 mg/L | > 30 mg/L | -2% | 1% | -1% | 
6 | Ab30 (antibody, human IgG1, kappa, V domains shown, humanized from Ab5; G1; also called Ab2 HC.1a and Ab2 LC.1a) VH: EVQLVQSGAEVKKPGSSVKVSCKASGYTFTSFWMHWVRQAPGQGLEWIGVIDPSDTYTNYNQKFKGRATLTVDESSSTAYMELSSLRSEDTAVYYCARGDYSNWFTYWGQGTLVTVSS VL: DVVMTQTPLSLSVTPGQPASISCRSSQRLVHSNGNTYLHWYLQKPGQSPQLLIYKVSNRFSGVPDRFSGSGSGTDFTLKISRVEAEDVGVYFCSQSTHVPWTFGGGTKVEIKR | 0.423 nM | 0.14 mg/L |  | 0.24 mg/L |  | -2% | 6% | -1% | 0.198 nM
7 | Ab40 (antibody, human IgG1, kappa, humanized from Ab7; G1; also called Ab4 HC.1a and Ab4 LC.1b) heavy: not shown light: DVVMTQTPLSLSVTPGQPASISCRSSQSLVHSNGNTYLHWYLQKPGQSPQLLIYKVSNRFSGVPDRFSGSGSGTDFTLKISRVEAEDVGVYYCSQSTHVPFTFGGGTKVEIKRTVAAPSVFIFPPSDEQLKSGTASVVCLLNNFYPREAKVQWKVDNALQSGNSQESVTEQDSKDSTYSLSSTLTLSKADYEKHKVYACEVTHQGLSSPVTKSFNRGEC |  | 0.4 mg/L |  | 0.32 mg/L | > 30 mg/L | -2% | 0% | -1% | 
8 | chAb8 (antibody, human IgG1, kappa, V domains shown, chimeric, murine variable and human G1/kappa constant regions) VH: EVQLQQSGPELVKPGASVKISCKASGYTFTDYNIHWVKQSHGKSLEWIGYIYPNNDGTGYNQKFKSKATLTVDNSSSTAYMEVRSLTSEDSAVYYCARGDGNYVGDMDYWGQGTSVTVSS VL: DIQMTQSPASLSASVGETVTITCRASENIYSYLAWYQQKQGKPPQLLVYNAKTLAEGVPSRFSGGGSGTQFSLKINSLQPEDFGSYYCQHHYATPFTFGSGTKLEIKT | 0.305 nM | 0.3 mg/L |  | 2.94 mg/L |  | -2% | -1% | -1% | 1.02 nM
